For assay [1], the system named is HCV IRES mediated translation. The experiment in a line: In vitro translation of uncapped HCV-IRES-Luc monocistronic RNA in rabbit reticulocyte lysate. The format is biochemical, hepatitis C virus. The note with it: 25 ng and 50 ng protein; data not shown.
The test system of another assay is nonspecific RNA. As to the kind of experiment: Filter binding assay with nonspecific RNA probe. The note with it: control probe, same filter-binding assay.

B1: wt-La: purified recombinant full-length wildtype human La protein (p52) (protein, UniProt P05455 1-408, looked up)
chain: MAENGDNEKMAALEAKICHQIEYYFGDFNLPRDKFLKEQIKLDEGWVPLEIMIKFNRLNRLTTDFNVIVEALSKSKAELMEISEDKTKIRRSPSKPLPEVTDEYKNDVKNRSVYIKGFPTDATLDDIKEWLEDKGQVLNIQMRRTLHKAFKGSIFVVFDSIESAKKFVETPGQKYKETDLLILFKDDYFAKKNEERKQNKVEAKLRAKQEQEAKQKLEEDAEMKSLEEKIGCLLKFSGDLDDQTCREDLHILFSNHGEIKWIDFVRGAKEGIILFKEKAKEALGKAKDANNGNLQLRNKEVTWEVLEGEVEKEALKKIIEDQQESLNKWKSKGRRFKGKGKGNKAAQPGSGKGKVQFQGKKTKFASDDEHDEHDENGATGPVKRAREETDKEEPASKQQKTENGAGDQ
modifications: full-length
Take B1: in assay [1], the “Stimulation of HCV IRES mediated translation in absence of peptide” value is given as “dose dependent stimulation”. Further, the “Binding of non-specific RNA probe (filter binding)” value in the assay on nonspecific RNA was “did not show considerable binding”.

The values above are taken from patent US20090233868A1, “Small antiviral peptides against hepatitis C virus” (priority 2005, published 2009).
